Assay [1] deals with mouse ICOS-mFc (Chimerigen) (mouse) (UniProt Q9WVS0). The experiment in a line: HTRF neutralisation of Alexa 647 mouse B7-H2 binding to mouse ICOS-mFc; hamster IgG, run with the IgG1 mAbs. On the technique in general: In TR-FRET formats the signal depends on donor and acceptor labels being close together.
Assay [2] addresses human ICOS-mFc (Chimerigen) (human) (UniProt Q9Y6W8). The experiment in a line: HTRF neutralisation of Alexa 647 human B7-H2 binding to human ICOS-mFc; hamster IgG, run with the IgG1 mAbs; mean, n = 4.
Assay [3] addresses mouse ICOS-mFc (Chimerigen) (mouse) (UniProt Q9WVS0). Put plainly: HTRF neutralisation of Alexa 647 mouse B7-H2 binding to mouse ICOS-mFc; hamster IgG, run with the IgG1 mAbs; mean, n = 3.
Assay [4] addresses human ICOS-mFc (Chimerigen) (human) (UniProt Q9Y6W8). Put plainly: HTRF neutralisation of Alexa 647 human B7-H2 binding to human ICOS-mFc; hamster IgG, run with the IgG4.PE mAbs; mean, n = 4.
Assay [5] deals with mouse ICOS-mFc (Chimerigen) (mouse) (UniProt Q9WVS0). Put plainly: HTRF neutralisation of Alexa 647 mouse B7-H2 binding to mouse ICOS-mFc; hamster IgG, run with the IgG4.PE mAbs; mean, n = 3.

Broadly, the IC50 is the concentration needed to halve the response being measured. Read a high IC50 as weaker potency.

mouse ICOS-mFc (Chimerigen) (mouse), sequence (Q9WVS0 21-141 limits assumed, change not shown): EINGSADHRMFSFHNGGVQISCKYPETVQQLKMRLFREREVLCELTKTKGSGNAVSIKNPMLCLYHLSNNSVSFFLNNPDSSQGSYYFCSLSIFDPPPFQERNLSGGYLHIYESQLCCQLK
human ICOS-mFc (Chimerigen) (human), sequence (Q9Y6W8 21-140, change not shown): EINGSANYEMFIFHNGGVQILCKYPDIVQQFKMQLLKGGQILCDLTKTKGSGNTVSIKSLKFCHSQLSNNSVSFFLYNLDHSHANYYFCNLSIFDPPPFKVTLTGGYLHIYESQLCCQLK

With “Anti-ICOS antibody C398.4A (hamster IgG)”, the IC50 came to 0.14 nM in assay [1]; 1.2 nM in assay [2]; 0.1 nM in assay [3]; 2.8 nM in assay [4]; 0.2 nM in assay [5].

For the origin of these results see patent US20180066058A1.
